{
  "source": "the DeepSol protein solubility set",
  "data": [
    {"experiment": "soluble on expression in E. coli; label from the status in PepcDB or PDB records", "values": [
      {"sequence": "MGSDKIHHHHHHLIPFFLDLVSRTDEARRAFELHPVVTHAAANGMTLQRYRRLLLELYHVVWHFNTVSAAGASRLQDTHKQVRYFLYEHMHEESGHEEWVLADLEQMGVTRDIALNHRPSHYTLALVGYYYYAADRKHPASVLGMLYALEVIASVYGGTLTSAVKESLLLDDERGVSFISSHATLDAEHMADLKTVLDTIEDDEAKDAIEEAVLLTFNHLTHIMVEAHLEEGDISGAPAVNAEHFAISAEKAAA", "soluble on expression in E. coli": "not soluble"},
      {"sequence": "MSAPLPPRGRGTASNPLNRFAPTHSEAFDDGWEQDVPPIQLTEVREEIARTVISRNQSPDLPFDRSINPYRGCEHGCIYCYARPSHAYWDLSPGIDFETRLIAKSNVASALEQELSKPGYRCAPINLGANTDPYQPLERERRLTRQVLEVLLRFRHPLTIVTKGSLILRDLDLLRELAEQNLVAVMISLTTLDDELKRILEPRAAAPSARLRAIRTLSGNGIPVGVLCSPMIPMVNDMELERLLQAARDAGARSAAYMLLRLPREVGPLFEEWLAAHYPQRAEHVMSLVRQCRGGEVYDSRFGHRFRGQGPFADLLAQRFAVAMKRLGLDRREGFGLDCSRFAVPGAQMALF", "soluble on expression in E. coli": "not soluble"},
      {"sequence": "MGSDKIHHHHHHMERSDAAMQPDAVSRPEIVMATRGITMLFPGTKALDNVDYNVYRGKVNVIIGENGAGKSTLMKILAGVQQPTSGQILLNGEAVRIADTRDAAAKGIGMVHQELNLSENLSVAENIFLGRELQKGVAPIDYLEQERIAAELMSRLDQAISPRTEVASLKVGQQQLVEIAKALADQADILILDEPTSALSKTEVEILFRVIRELTRQNVSIIYISHRLEELMAIGDYITILRDGCFQAEAAVSDIDVPWIVREMLGGDPVTSFLHSGRTFGAPILEAEHLTCLNDAGHQVVNDVSLMVREGEIVGIYGLMGAGRTELFECLLGIQNDYLGKIYLDSKPVSPRLSTAQRIRMGMSLVPEDRKKTGIFPLSSVASNLTIASLWRRLKYGMAIFQRQEQEVVASTVGRLAIKVSSPEVEIQALSGGNQQKVVIGRSLLTSPKVLLLDEPTRGIDVGAKADVFEMMVGLSEQGIGVLFSTSDLKEIMAVSDRILVMSNGKLTANIVRQSASESALVSASAQGF", "soluble on expression in E. coli": "not soluble"},
      {"sequence": "MGSDKIHHHHHHMSSSHSKNGNENETAKGITRISVSGYKSLYDECSIEIRPLTILAGANSSGKSSIIQPLLLMKQTLEATYDPGALLLNGANVKFTSAEQLISHLPGKERIQRFVIGIEIEHNQSVKNIFTKFPRQPIDLQEMIVEKNDSKVSLSTDTLPADVVNILPKQYLDFYKSIQDTDLKGKFFFIISRNRCFLEFELYDFINQKKLSSQSFLFNYITPDHTELFGRQIRKIIHIPGLRGNPERNYKTTAVGDAFPGTFDNYVASIIHRWQRPRDKRLQELNNALVSLGLTSKVQAKQLDDTQVELRVARLTRNSDNEKDMVSIADVGFGVSQTLPVLVALLVAEPGQLVYIEQPEIHLHPRAQVAMAEILANAAKRGVKIVVETHSDRLILATQSLVAEGNLSPDLVKLHWFTRQEDGITKINSADLDETGAFGDWPEDFGDVSLQLENRYLSAAEARLIQGTHGG", "soluble on expression in E. coli": "not soluble"},
      {"sequence": "MGHVSNSPFSVDVLVVGGGPAGSAAAIHAAKAGYSVLLIDAQPFPRDKTCGDGLTPRAVHQLEALGVDVTSRYRSFGLKLHGFGGSVTVPWPESHFGQVSSAMPRMKFDAMLWEMAAQHATTWTATASEVEIDSAIRSVTMSDGRVVKPRSVIVADGVRSTFGKLLGRTWHRGEVYGIAARSYCTTPRSTEPWMHSHLELRDDSTTLPGYGWIFPIGDGTANVGCGALSTDKRPAKINTKKLLRHYASQQTDWEFGTPQRVASALLPMGGAVSTIAGPNWMLIGDAAACVNPLNGEGIDYGLETAALAVAHLDNPLEWPHILRETYGEAFLLARTAARLLTYPQFLPLTGPIALRTPLMASAARLMGNLVTEEDKDIVARAWRAAGWGVTKIRGGSPLWDLEHHHHHH", "soluble on expression in E. coli": "not soluble"},
      {"sequence": "MGSDKIHHHHHHMFLSPYFLKQNQSISVSAQQASDFAKKIAQDFNPIHDVGAKRFCVPGDLLFALVLTQYGLSQSMKFTFAGMVGDGVELQFPEQVNDSFSICDNRDKTYLNVSRLGDISRCDAQTESFIRHYVAFSGHNFIDILMPLMKQHQVMINPDRPLVIYESMSFDLTTLDFVEVQLSLVQQELKIDGKRGDVTLHFELHSGDTLVGTGIKTLVMSGLRAYEEDQVQQMCAAYEGRKTDF", "soluble on expression in E. coli": "not soluble"},
      {"sequence": "DILVFTPRKSDAGISVILYPGAFVDALSYAPLANKLASSGYKTYIAEMPLNLAVFGKNRAADIIDEAPDEKFVIGGHSLGGVMSSRFAHENESEIEGVFFLASYPDKKGSLKNASFPALSITGTKDDVLNKDAYDKNKKYLPKDTTFVSIEGGNHAQFGSYGAQHGDGKATISEAEQTDQVSNALIAWLNTSVKNQER", "soluble on expression in E. coli": "soluble"}
    ]}
  ]
}
